Sequences and labels used below:
B1: Helicobacter pylori UreG (enzyme)
chain: MVKIGVCGPVGSGKTALIEALTRHMSKDYDMAVITNDIYTKEDAEFMCKNSVMPRERIIGVETGGCPHTAIREDASMNLEAVEEMHGRFPNLELLLIESGGDNLSATFNPELADFTIFVIDVAEGDKIPRKGGPGITRSDLLVINKIDLAPYVGADLKVMERDSKKMRGEKPFIFTNIRAKEGLDDVIAWIKRNALLED
B2: Helicobacter pylori UreE(1-148), C-terminal truncation variant (domain or fragment, UniProt Q09064 1-148, looked up)
chain: MIIERLVGNLRDLNPLDFSVDHVDLEWFETRKKIARFKTRQGKDIAIRLKDAPKLGLSQGDILFKEEKEIIAVNILDSEVIHIQAKSVAEVAKICYEIGNRHAALYYGESQFEFKTPFEKPTLALLEKLGVQNRVLSSKLDSKERLTV
B3: Helicobacter pylori HypA with C-terminal Strep-tag II (HypAstr) (natural protein, UniProt P0A0U4 1-117, looked up)
chain: MHEYSVVSSLIALCEEHAKKNQAHKIERVVVGIGERSAMDKSLFVSAFETFREESLVCKDAILDIVDEKVELECKDCSHVFKPNALDYGVCEKCHSKNVIITQGNEMRLLSLEMLAE
B4: Helicobacter pylori UreE(1-158), C-terminal truncation variant (domain or fragment, UniProt Q09064 1-158, looked up)
chain: MIIERLVGNLRDLNPLDFSVDHVDLEWFETRKKIARFKTRQGKDIAIRLKDAPKLGLSQGDILFKEEKEIIAVNILDSEVIHIQAKSVAEVAKICYEIGNRHAALYYGESQFEFKTPFEKPTLALLEKLGVQNRVLSSKLDSKERLTVSMPHSEPNFK

The data set “crystal structure” concerns the molecule itself. The data set can be described thus: crystal structure.
The data set “Helicobacter pylori UreG” addresses B1. Description: crystal structure.
In data set [1] the target is T1, Helicobacter pylori UreE, wild-type (residues 1-170) (Helicobacter pylori, UniProt Q09064 1-170).
T1 sequence (looked up): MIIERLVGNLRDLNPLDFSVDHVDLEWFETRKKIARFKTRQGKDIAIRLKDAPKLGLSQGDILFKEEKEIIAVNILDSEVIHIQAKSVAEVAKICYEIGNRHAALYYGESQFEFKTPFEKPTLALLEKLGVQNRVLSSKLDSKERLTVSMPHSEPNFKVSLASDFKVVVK
Description: pull-down.

Take B1: in the data set “crystal structure”, the binding result was “binds”.

In the case of B2, the binding result in “crystal structure” and in the data set with Helicobacter pylori UreG was “binds” throughout.

As to B3, the binding result in data set [1] is listed as “binds”. Turning to B4, the binding result in the data set “crystal structure” and with Helicobacter pylori UreG was “binds” throughout.
